Experimental data as given in patent US20230357427A1 (SHANGHAI IMMUNOHEAD BIOTECHNOLOGY, published 2023).

T1: EpCAM on human tumor cells (SW480, HCT116, HCT116-Luc, KATO-III, A549) (human, UniProt P16422 24-314)
T1 construct: whole, on cells; also called epithelial cell adhesion molecule
T1 sequence (looked up): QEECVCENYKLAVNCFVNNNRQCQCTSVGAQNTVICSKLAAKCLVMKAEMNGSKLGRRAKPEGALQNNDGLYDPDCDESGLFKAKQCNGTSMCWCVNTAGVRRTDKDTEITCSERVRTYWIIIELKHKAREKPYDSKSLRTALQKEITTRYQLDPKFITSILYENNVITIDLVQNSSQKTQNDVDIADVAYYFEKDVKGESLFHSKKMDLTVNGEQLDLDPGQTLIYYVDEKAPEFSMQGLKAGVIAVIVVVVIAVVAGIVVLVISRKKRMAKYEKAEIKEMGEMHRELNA


Legend:
[1] = target: T1, EpCAM on human tumor cells (SW480, …); assay: flow cytometry on HCT116 cells
Source text: (§1) The EC50 values of each recombinant antibody on SW480 and HCT116 are shown in Table 3, which are derived from FIGS. 1-4.

[2] = target: T1, EpCAM on human tumor cells (SW480, …); assay: flow cytometry on SW480 cells
Source text: as §1

Row | EC50 [1] | EC50 [2] | Binder
1 | 0.468 µg/mL | 0.581 µg/mL | mHmL (antibody, V domains shown, it was captured on Protein A; also called original antibody mHmL; EpCAM antibody) VH: QVKLQQSGAELVRPGASVKLSCKASGYTFTNYWINWVKQRPGQGLEWIGNIYPSYIYTNYNQEFKDKVTLTVDESSSTAYMQLSSPTSEDSAVYYCTRSPYGYDEYGLDYWGQGTTVTVSS VL: DIELTQSPSSLTVTAGEKVTMNCKSSQSLLNSRNQKNYLTWYQQKPGQPPKLLIYWASTRESGVPDRFTGSGSGTDFTLTISSVQAEDLAVYYCQNDYVYPLTFGAGTKLEIK
2 | 0.583 µg/mL | 0.599 µg/mL | H2L1 (antibody, V domains shown, Recombinant antibody from ExpiCHO-s; the limits were counted from the printed signal peptide, linker and hinge) VH: QVQLVQSGAEVKKPGASVKVSCKASGYTFTNYWINWVRQAPGQGLEWIGNIYPSYIYTNYNQEFKDKVTLTVDESTSTAYMELSSLRSEDTAVYYCTRSPYGYDEYGLDYWGQGTTVTVSS VL: DIQLTQSPSSLSASVGDRVTMTCKSSQSLLNSRNQKNYLTWYQQKPGKAPKLLIYWASTRESGVPSRFSGSGSGTDFTLTISSVQPEDFATYYCQNDYVYPLTFGQGTKLEIK
3 | 0.584 µg/mL | 0.653 µg/mL | H2L3 (antibody, V domains shown, Recombinant antibody from ExpiCHO-s; the limits were counted from the printed signal peptide, linker and hinge) VH: QVQLVQSGAEVKKPGASVKVSCKASGYTFTNYWINWVRQAPGQGLEWIGNIYPSYIYTNYNQEFKDKVTLTVDESTSTAYMELSSLRSEDTAVYYCTRSPYGYDEYGLDYWGQGTTVTVSS VL: DIVLTQSPDSLAVSLGERATMNCKSSQSLLNSRNQKNYLTWYQQKPGQPPKLLIYWASTRESGVPDRFSGSGSGTDFTLTISSLQAEDVAVYYCQNDYVYPLTFGQGTKLEIK
4 | 0.584 µg/mL | 0.655 µg/mL | H2L4 (antibody, V domains shown, Recombinant antibody from ExpiCHO-s; the limits were counted from the printed signal peptide, linker and hinge) VH: QVQLVQSGAEVKKPGASVKVSCKASGYTFTNYWINWVRQAPGQGLEWIGNIYPSYIYTNYNQEFKDKVTLTVDESTSTAYMELSSLRSEDTAVYYCTRSPYGYDEYGLDYWGQGTTVTVSS VL: EIVLTQSPATLSLSPGERATMSCKSSQSLLNSRNQKNYLTWYQQKPGQAPRLLIYWASTRESGIPARFSGSGSGTDFTLTISSLEPEDFAVYYCQNDYVYPLTFGQGTKLEIK
5 | 0.563 µg/mL | 0.631 µg/mL | H1L3 (antibody, V domains shown, Recombinant antibody from ExpiCHO-s; the limits were counted from the printed signal peptide, linker and hinge) VH: QVQLVQSGAEVKKPGASVKLSCKASGYTFTNYWINWVKQAPGQGLEWIGNIYPSYIYTNYNQEFKDKVTLTVDESTSTAYMELSSLRSEDTAVYYCTRSPYGYDEYGLDYWGQGTTVTVSS VL: DIVLTQSPDSLAVSLGERATMNCKSSQSLLNSRNQKNYLTWYQQKPGQPPKLLIYWASTRESGVPDRFSGSGSGTDFTLTISSLQAEDVAVYYCQNDYVYPLTFGQGTKLEIK
6 | 0.472 µg/mL | 0.569 µg/mL | H3L2 (antibody, V domains shown, Recombinant antibody from ExpiCHO-s; the limits were counted from the printed signal peptide, linker and hinge) VH: QVQLVQSGAEVKKPGASVKVSCKASGYTFTNYWINWVRQAPGQGLEWIGNIYPSYIYTNYNQEFKDRVTLTRDTSISTAYMELSRLRSDDTAVYYCTRSPYGYDEYGLDYWGQGTTVTVSS VL: DIQLTQSPSSLSASVGDRVTMTCKSSQSLLNTRNQKNYLTWYQQKPGKAPKLLIYWASTRESGVPSRFSGSGSGTDFTLTISSLQPEDFATYYCQNDYVYPLTFGQGTKLEIK
7 | 0.503 µg/mL | 0.567 µg/mL | H1L1 (antibody, V domains shown, Recombinant antibody from ExpiCHO-s; These limits were counted from the printed signal peptide, linker and hinge) VH: QVQLVQSGAEVKKPGASVKLSCKASGYTFTNYWINWVKQAPGQGLEWIGNIYPSYIYTNYNQEFKDKVTLTVDESTSTAYMELSSLRSEDTAVYYCTRSPYGYDEYGLDYWGQGTTVTVSS VL: DIQLTQSPSSLSASVGDRVTMTCKSSQSLLNSRNQKNYLTWYQQKPGKAPKLLIYWASTRESGVPSRFSGSGSGTDFTLTISSVQPEDFATYYCQNDYVYPLTFGQGTKLEIK
8 | 0.478 µg/mL | 0.564 µg/mL | H3L1 (antibody, V domains shown, Recombinant antibody from ExpiCHO-s; the limits were counted from the printed signal peptide, linker and hinge) VH: QVQLVQSGAEVKKPGASVKVSCKASGYTFTNYWINWVRQAPGQGLEWIGNIYPSYIYTNYNQEFKDRVTLTRDTSISTAYMELSRLRSDDTAVYYCTRSPYGYDEYGLDYWGQGTTVTVSS VL: DIQLTQSPSSLSASVGDRVTMTCKSSQSLLNSRNQKNYLTWYQQKPGKAPKLLIYWASTRESGVPSRFSGSGSGTDFTLTISSVQPEDFATYYCQNDYVYPLTFGQGTKLEIK
9 | 0.492 µg/mL | 0.542 µg/mL | H3L3 (antibody, V domains shown, Recombinant antibody from ExpiCHO-s; the limits were counted from the printed signal peptide, linker and hinge) VH: QVQLVQSGAEVKKPGASVKVSCKASGYTFTNYWINWVRQAPGQGLEWIGNIYPSYIYTNYNQEFKDRVTLTRDTSISTAYMELSRLRSDDTAVYYCTRSPYGYDEYGLDYWGQGTTVTVSS VL: DIVLTQSPDSLAVSLGERATMNCKSSQSLLNSRNQKNYLTWYQQKPGQPPKLLIYWASTRESGVPDRFSGSGSGTDFTLTISSLQAEDVAVYYCQNDYVYPLTFGQGTKLEIK
10 | 0.537 µg/mL | 0.595 µg/mL | H2L2 (antibody, V domains shown, Recombinant antibody from ExpiCHO-s; the limits were counted from the printed signal peptide, linker and hinge) VH: QVQLVQSGAEVKKPGASVKVSCKASGYTFTNYWINWVRQAPGQGLEWIGNIYPSYIYTNYNQEFKDKVTLTVDESTSTAYMELSSLRSEDTAVYYCTRSPYGYDEYGLDYWGQGTTVTVSS VL: DIQLTQSPSSLSASVGDRVTMTCKSSQSLLNTRNQKNYLTWYQQKPGKAPKLLIYWASTRESGVPSRFSGSGSGTDFTLTISSLQPEDFATYYCQNDYVYPLTFGQGTKLEIK
11 | 0.474 µg/mL | 0.568 µg/mL | H4L1 (antibody, V domains shown, Recombinant antibody from ExpiCHO-s; the limits were counted from the printed signal peptide, linker and hinge) VH: QVQLVQSGAEVKKPGASVKVSCKASGYTFTNYWINWVRQAPGQGLEWIGNIYPSYIYTNYAQKFQGRVTLTRDTSTSTVYMELSSLRSEDTAVYYCTRSPYGYDEYGLDYWGQGTTVTVSS VL: DIQLTQSPSSLSASVGDRVTMTCKSSQSLLNSRNQKNYLTWYQQKPGKAPKLLIYWASTRESGVPSRFSGSGSGTDFTLTISSVQPEDFATYYCQNDYVYPLTFGQGTKLEIK
12 | 0.426 µg/mL | 0.449 µg/mL | H5L1 (antibody, V domains shown, Recombinant antibody from ExpiCHO-s; the limits were counted from the printed signal peptide, linker and hinge) VH: QVQLVQSGAEVKKPGASVKVSCKASGYTFTNYWINWVRQAPGQGLEWIGNIYPSYIYTNYNQEFKDRVTMTRDTSISTAYMELSRLRSDDTAVYYCTRSPYGYDEYGLDYWGQGTTVTVSS VL: DIQLTQSPSSLSASVGDRVTMTCKSSQSLLNSRNQKNYLTWYQQKPGKAPKLLIYWASTRESGVPSRFSGSGSGTDFTLTISSVQPEDFATYYCQNDYVYPLTFGQGTKLEIK
13 | 0.602 µg/mL | 0.675 µg/mL | H1L4 (antibody, V domains shown, Recombinant antibody from ExpiCHO-s; the limits were counted from the printed signal peptide, linker and hinge) VH: QVQLVQSGAEVKKPGASVKLSCKASGYTFTNYWINWVKQAPGQGLEWIGNIYPSYIYTNYNQEFKDKVTLTVDESTSTAYMELSSLRSEDTAVYYCTRSPYGYDEYGLDYWGQGTTVTVSS VL: EIVLTQSPATLSLSPGERATMSCKSSQSLLNSRNQKNYLTWYQQKPGQAPRLLIYWASTRESGIPARFSGSGSGTDFTLTISSLEPEDFAVYYCQNDYVYPLTFGQGTKLEIK
